Source: the supplement of paper PMC10567573

B1: MFF (parent)
chain: DDLTVVDAASLRRQIIKLNRRLQL

Variants of: B1
Experiment: protein stability index of a GFP-peptide fusion (GPS, HEK-293T) (PSI 1-6); higher = more stable
Conditions: c terminus: a fixed tail appended
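Also: lentivirally expressed fusions sorted by FACS into six bins by GFP to DsRed ratio, PSI derived from sequencing read proportions per bin multiplied by bin number.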

Variant	protein stability index
L22T	2.62
L22Y	2.7
L22W	2.4
L22R	3.01
L22A	3.25
L22I	1.99
L22Q	3.21
V5D	2.37
V5E	2.38
V5T	2.69
V5C	1.72
D1E	1.67
D1A	2.08
D1N	2.1
D1G	2.17
I15R	3.71
I15A	2.43
I15L	2.23
I15K	3.5
I15W	2.34
I16Q	1.98
I16M	1.67
I16R	3.58

Variant	protein stability index
I16G	1.64
A9R	4.18
A9Q	2.22
A9N	2.42
A9D	2.02
A9S	2.2
A9K	2.31
R12C	1.95
R12M	1.64
L3M	3.06
L3D	2.58
L3E	2.56
L3K	2.34
L3W	1.48
R21H	1.6
R21S	2.98
R21Y	1.94
R21T	1.91
R21A	1.57
R21L	1.33
R21P	2.99
R21N	2.46
N19C	3.04

Variant	protein stability index
N19T	2.68
N19K	1.94
N19D	3.79
N19Y	1.85
L24Y	1.72
L24F	1.8
L24E	2.23
L24I	2.32
L24C	2.06
L24N	2.35
L24H	2.21
L24W	1.94
L24K	2.99
R20M	2.21
R20G	2.04
R20E	2.02
R20P	2.79
R20L	2.37
R20C	2.06
R20K	1.02
L11I	2.72
L11W	2.84
L11N	2.59

Variant	protein stability index
L11G	3.84
L11S	3.73
L11F	2.48
L11A	2.33
D7E	2.04
D7W	1.92
D7F	1.85
D7G	2.71
D7Y	1.61
D7P	2.71
K17N	2.2
K17R	2.24
K17I	1.85
L18V	1.95
L18I	3.42
L18G	2.48
L18F	3.41
L18R	3.73
L18W	1.84
L18H	3
A8R	2.57
A8M	3.09
A8E	2.63

Variant	protein stability index
A8G	3.13
A8L	2.58
V6D	2.3
V6Q	1.9
V6S	1.64
V6C	2.41
V6P	4.09
V6F	2.29
Q23A	1.57
Q14F	1.51
Q14S	2.11
Q14P	3.56
Q14E	1.78
T4Y	1.43
T4C	1.86
S10N	2.28
S10Y	1.69
S10F	2.32
S10K	1.79
